Drawing on publication PMC2747047, this text covers Km and kcat for one substance.

Assay in all cases: purified protein
For data set [1], the system named is C[C@@H](O)[C@H]1C(=O)N2C(C(=O)O)=C(SCCN=CN)C[C@H]12. The following applies: Fe/Zn enzyme; buffer not told in main text.
Data set [2] relates to CO/N=C(\C(=O)N[C@@H]1C(=O)N2C(C(=O)O)=C(COC(C)=O)CS[C@H]12)c1csc(N)n1. The following applies: Fe/Zn enzyme; buffer not told in main text.
For data set [3], the system named is O=C(Cc1cccs1)N[C@@H]1C(=O)N2C(C(=O)O)=C(/C=C/c3ccc([N+](=O)[O-])cc3[N+](=O)[O-])CS[C@H]12. Format: biochemical, Arabidopsis thaliana. To be noted: 10 mM MOPS, pH 7.2 (as in Figure 2), Fe/Zn enzyme.

In general, Km refers to the concentration of substrate that gives half-maximal velocity. By kcat is commonly meant the maximal rate divided by the concentration of active sites. In the case of Glx2-1 (Arabidopsis thaliana), the Km in data set [1] was determined as 23 ± 3 µM; in data set [2], 25 ± 5 µM; in data set [3] it was 9.9 ± 1.6 µM. In addition, the kcat was determined as 0.20 ± 0.01 s⁻¹ in data set [1], 0.20 ± 0.01 s⁻¹ in data set [2] and 1.20 ± 0.04 s⁻¹ in data set [3].
